Experimental findings from PMC7027902 are described below.

For experiment [1], the target named is soluble biotinylated cognate peptide-MHC of the DMF5 TCR. The experiment in a line: BLI; Octet RED96; biotinylated pMHC (5 µg/mL) loaded on streptavidin tips; TCR in twofold serial dilutions from 200 nM, 900 s association, 600 s dissociation; PBS with kinetic buffer; 1:1 binding model.
Experiment [2] addresses soluble biotinylated cognate peptide-MHC of the A6 TCR. Described as above.

In experiment [1], “wild-type DMF5 TCR (soluble α/β heterodimer)” displayed a Kd of 31.6 nM and a koff of 7.4e-05 s⁻¹.
In experiment [2], “wild-type high-affinity A6 TCR (soluble α/β heterodimer)” showed a Kd of 8.3 nM and a koff of 0.000416 s⁻¹.
